T1: CLEVER-1 coated on the ELISA plate (competition ELISA, Examples 5 and 10) (human, UniProt Q9NY15 26-1027, limits assumed)
T1 construct: Coated at 1 ug/ml in PBS; also called human Clever-1
T1 sequence (looked up): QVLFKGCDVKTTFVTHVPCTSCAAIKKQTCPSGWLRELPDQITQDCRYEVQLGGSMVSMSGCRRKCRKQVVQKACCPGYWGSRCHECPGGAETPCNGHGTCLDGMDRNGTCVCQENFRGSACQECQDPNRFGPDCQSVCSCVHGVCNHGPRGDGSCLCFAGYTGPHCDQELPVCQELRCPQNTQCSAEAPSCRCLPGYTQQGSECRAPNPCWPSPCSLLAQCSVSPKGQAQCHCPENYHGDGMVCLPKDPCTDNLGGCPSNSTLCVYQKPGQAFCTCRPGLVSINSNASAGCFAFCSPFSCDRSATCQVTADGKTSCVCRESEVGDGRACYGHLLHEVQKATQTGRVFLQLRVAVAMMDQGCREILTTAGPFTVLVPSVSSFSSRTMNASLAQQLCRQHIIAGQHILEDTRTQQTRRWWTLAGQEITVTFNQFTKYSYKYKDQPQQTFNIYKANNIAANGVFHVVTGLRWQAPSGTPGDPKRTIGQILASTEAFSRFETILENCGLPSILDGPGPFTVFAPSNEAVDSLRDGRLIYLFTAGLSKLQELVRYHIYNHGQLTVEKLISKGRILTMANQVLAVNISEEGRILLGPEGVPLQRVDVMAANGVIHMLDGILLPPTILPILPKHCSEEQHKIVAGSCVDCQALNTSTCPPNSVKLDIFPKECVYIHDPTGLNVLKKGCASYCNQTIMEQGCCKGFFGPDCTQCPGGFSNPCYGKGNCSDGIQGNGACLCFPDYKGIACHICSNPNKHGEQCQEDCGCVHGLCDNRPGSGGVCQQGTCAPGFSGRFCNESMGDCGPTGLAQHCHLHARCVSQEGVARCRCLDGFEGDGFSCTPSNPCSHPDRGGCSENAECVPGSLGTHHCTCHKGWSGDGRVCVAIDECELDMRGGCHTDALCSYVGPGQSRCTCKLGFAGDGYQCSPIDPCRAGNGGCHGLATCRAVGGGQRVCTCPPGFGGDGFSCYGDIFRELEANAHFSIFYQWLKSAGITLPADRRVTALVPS

B1: chimeric 3-372 IgG4 (antibody, V domains shown)
VH: QVTLKESGPGILQPSQTLSLTCSFSGFSLNTSGMGIGWIRQPSGKGLEWLAHIWWDDDKRYNPALKSRLTISKDTSSNQVFLKIASVDTADTATYYCARHYGYDPYYAMDYWGQGTSVTVSS
VL: QIVLTQSPAIMSASLGERVTMTCTASSSVSSSYLHWYQQRPGSSPKLCIYRTSNLASGVPPRFSGSGSGTSYSLTISSMEAEDAATYYCHQYHRSPPTFGGGTKLEIN
notes: Expressed in NSO cells; also called CH/CK; chimera
B2: mouse monoclonal antibody 3-372 (DSM ACC2520) (antibody, V domains shown)
VH: B1 VH
VL: B1 VL
notes: Mouse hybridoma antibody with kappa light chain

What was measured:
[1] = biological target: T1, CLEVER-1 coated on the ELISA plate …; experiment: competition ELISA on coated CLEVER-1 against biotinylated mouse 3-372
Method: These were incubated for 1 hour at room temperature on a 96 well Immulon maxisorp plate (Fisher Cat. No. DIS-971-030J) precoated with 1 μg/ml CLEVER-1. […] The reaction was stopped with 3M HCl, absorbance read at 450 nm on a Dynex Technologies MRX TC II plate reader and the binding curves plotted. IC50 values for each antibody were calculated and these were normalized to the IC50 of the chimera which was included on each respective ELISA plate.

[2] = biological target: T1, CLEVER-1 coated on the ELISA plate …; experiment: competition ELISA on coated CLEVER-1 against 0.6 µg/ml biotinylated mouse 3-372
Method: Briefly, a Nunc Immulon 96 well maxisorp plate (Fisher Cat. No. DIS-971-030J) was coated with CLEVER-1 at 1 μg/ml in PBS (100 μl/well) overnight at 4° C., with an additional 1 hour at 37° C. the following morning. Wells were washed with PBS/0.1% Tween 20 and then blocked for 45 min at room temperature, in 1% Marvel/1% BSA/PBS.
The blocked ELISA plate was washed as before and 100 μl of the premixed antibodies added to each well. The plate was incubated for 1 hour at room temperature.
This confirms that the correct variable region sequences have been identified and expressed in the chimeric antibody.

Binder | Relative IC50 [1] | IC50 [2]
B1 | 1 relative to the chimera on the same plate | 0.89 µg/mL
B2 |  | 0.77 µg/mL

— patent US20190194317A1 (FARON PHARMACEUTICALS, published 2019)
